# Reference: paper PMC11224109, “Synthesis and preclinical evaluation of novel ^18F-vancomycin-based tracers for the detection of bacterial infections using positron emission tomography” (European Journal of Nuclear Medicine and Molecular Imaging, 2024)
# Experiments:
# [1] = Distribution coefficient LogD7.4, shake-flask n-octanol/PBS; assay type: physicochemical; conditions: shake-flask n-octanol/PBS pH 7.4, 500 µL each, 10 µL tracer in saline, vortexed 30 s, shaken 15 min, gamma counter, mean ± SD
# Procedure: The tracer distribution coefficient in n-octanol/PBS pH 7.4 (LogD7.4) was determined using a shake-flask methodology. To an Eppendorf tube containing 500 µL n-octanol and 500 µL PBS, 10 µL tracer solution in saline was added. The vial was vortexed for 30 s and placed on an Eppendorf shaker for 15 min. After incubation, layers were separated by centrifugation (1 min at 10.000 rpm) and a fraction of the n-octanol layer was pipetted off. To minimize contamination of the bottom layer with the n-octanol layer, the bottom PBS layer was collected by puncturing the bottom of the Eppendorf tube with a 22G needle and aspirating a fraction of the PBS layer. Collected fractions were weighted to correct for collected volume and subsequently measured on a calibrated gamma counter and corrected for decay. LogD7.4 was calculated as [drawing 1] .
# [2] = Summary of tracer stability in vitro and in vivo
# Procedure: Stability of the tracers was determined in PBS and human plasma. In a typical experiment, 1 MBq of radioactivity (10–20 µL) was added to 250 µL of PBS or human plasma. Samples were heated to 37 °C on a shaker and sampled at fixed intervals. For samples containing human plasma, protein was precipitated using two volumes of cold MeCN. Precipitated samples were briefly centrifuged to pellet the insoluble fraction and supernatant was used for stability assessment. Supernatant (1 µL) was loaded on a TLC plate and imaged using BAS-IP MS 2025 E plates (Fujifilm, Tokyo, Japan) on an Amersham Typhoon Biomolecular Imager (GE Healthcare Bio-Sciences Corp, Chicago, United States) equipped with a phosphor imaging stage. [^18F]BODIPY-FL-vancomycin has an Rf of 0.68 (petroleum ether/MeOH 3:1), [^18F]FB-vancomycin has an Rf of 0.66 (2 M NaOAc/MeOH 5:1). For [^18F]PQ-VE1-vancomycin, conditions described in [44] were used.
# [3] = Biodistribution in vivo and PET in healthy mice; conditions: in vivo; for tissue uptake at 0.5 h / tissue uptake at 1 h: male, C57BL/6, mouse, 2 MBq, total radioactivity, Biodistribution, healthy male C57BL/6 mice, penile vein injection, gamma counter, mean of n = 3; for tissue uptake at 0.5 h: 30 min; for tissue uptake at 1 h: 60 min
# Procedure: All murine experiments were approved by the Animal Care and Use Committee of the University of Groningen under license protocol number 2114768-01-001. In vivo biodistribution was performed in male C57BL/6 mice (age 8 weeks, 25 g). Per tracer, the animals were divided in three groups based on the tracer distribution times (30 min, 60 min, and 90 min). […] Each experimental arm (i.e. time point) consisted of three animals. […] Tracer was administered at t = 0 via penile vein injection (2.0 ± 0.9 MBq in 100 µL 0.9% saline solution, Supplemental Table 2). After tracer administration, the animals were transferred to a Siemens Focus 220 microPET small animal scanner (Siemens, Munich, Germany) and scanned for the designated time, followed by a transmission scan of 10 min for attenuation correction. PET data were normalized and corrected for decay, after which the PET data were reconstructed using OSEM2D-Z1-SC-256. The PET data frames used for reconstruction were: 6 × 10 s, 4 × 30 s, 2 × 60 s, 120 s, 180 s, 4 × 300 s, 3 × 600 s, 1200 s or until the designated scan time was reached, taking into account a 10-min transmission scan following the emission scan. Next, animals were terminated, and organs harvested to assay biodistribution in a calibrated gamma counter (Wizard2, Perkin Elmer, Waltham, United States).
smiles,measurement,setting,value
CC(C)C[C@H](C(=O)N[C@H]1C(=O)N[C@@H](CC(N)=O)C(=O)N[C@H]2C(=O)N[C@H]3C(=O)N[C@H](C(=O)N[C@H](C(=O)O)c4cc(O)cc(O)c4-c4cc3ccc4O)[C@H](O)c3ccc(c(Cl)c3)Oc3cc2cc(c3O[C@@H]2O[C@H](CO)[C@@H](O)[C@H](O)[C@H]2O[C@H]2C[C@](C)(N)[C@H](O)[C@H](C)O2)Oc2ccc(cc2Cl)[C@H]1O)N(C)C(=O)c1ccc(F)cc1 [[^18F]FB-vancomycin],LogD7.4,[1],-0.96 ± 0.03 (n = 12)
same,Stability,[2],Rapidly degraded in vitro and in vivo.
same,tissue uptake at 0.5 h,"[3]; iv, Bladder",21.8 %ID/g
same,tissue uptake at 1 h,"[3]; iv, Bladder",18.5 %ID/g
same,tissue uptake at 0.5 h,"[3]; iv, Bone",0.06 %ID/g
same,tissue uptake at 1 h,"[3]; iv, Bone",0.04 %ID/g
same,tissue uptake at 0.5 h,"[3]; iv, Brain",0.05 %ID/g
same,tissue uptake at 1 h,"[3]; iv, Brain",0.05 %ID/g
same,tissue uptake at 0.5 h,"[3]; iv, Fat",0.54 %ID/g
same,tissue uptake at 1 h,"[3]; iv, Fat",0.26 %ID/g
same,tissue uptake at 0.5 h,"[3]; iv, Heart",0.11 %ID/g
same,tissue uptake at 1 h,"[3]; iv, Heart",0.22 %ID/g
same,tissue uptake at 0.5 h,"[3]; iv, Kidneys",1.01 %ID/g
same,tissue uptake at 1 h,"[3]; iv, Kidneys",0.45 %ID/g
same,tissue uptake at 0.5 h,"[3]; iv, Large intestine",0.25 %ID/g
same,tissue uptake at 1 h,"[3]; iv, Large intestine",0.37 %ID/g
same,tissue uptake at 0.5 h,"[3]; iv, Liver",0.15 %ID/g
same,tissue uptake at 1 h,"[3]; iv, Liver",0.1 %ID/g
same,tissue uptake at 0.5 h,"[3]; iv, Lungs",0.2 %ID/g
same,tissue uptake at 1 h,"[3]; iv, Lungs",0.14 %ID/g
same,tissue uptake at 0.5 h,"[3]; iv, Muscle",0.14 %ID/g
same,tissue uptake at 1 h,"[3]; iv, Muscle",0.12 %ID/g
same,tissue uptake at 0.5 h,"[3]; iv, Plasma",0.29 %ID/g
same,tissue uptake at 1 h,"[3]; iv, Plasma",0.15 %ID/g
same,tissue uptake at 0.5 h,"[3]; iv, Small intestine",0.3 %ID/g
same,tissue uptake at 1 h,"[3]; iv, Small intestine",0.19 %ID/g
same,tissue uptake at 0.5 h,"[3]; iv, Spleen",0.14 %ID/g
same,tissue uptake at 1 h,"[3]; iv, Spleen",0.09 %ID/g
same,tissue uptake at 0.5 h,"[3]; iv, Stomach",0.1 %ID/g
same,tissue uptake at 1 h,"[3]; iv, Stomach",0.21 %ID/g
same,tissue uptake at 0.5 h,"[3]; iv, Whole blood",0.2 %ID/g
same,tissue uptake at 1 h,"[3]; iv, Whole blood",0.1 %ID/g
same,Accumulation,[3]; mouse,"No accumulation in tissues, only in urine"
same,Clearance,[3]; mouse,Rapid renal clearance
same,In vivo stability,"[3]; mouse, iv",poor in vivo stability
